Target: Cdk4/cyclin D1 complex (UniProt P11802)

maximal extent of Cdk4 inhibition at saturating concentrations	Substance
95%	p27-KID^(pY88, Y89F) (domain or fragment)
80%	p27-KID^(pY74, pY88, Y89F) (domain or fragment)
98%	p27-KID^(Y74E, Y89F) (domain or fragment)

From publication PMC3331940
